From publication PMC10638397, “Engineering sulfonate group donor regeneration systems to boost biosynthesis of sulfated compounds” (Nature Communications, 2023)

What was measured:
purified protein = substrate: Nc1ncnc2c1ncn2[C@@H]1O[C@H](COP(=O)(O)OS(=O)(=O)O)[C@@H](O)[C@H]1O; test: purified protein; conditions: Mg2+, pH 7.5, 35 °C (general assay), acceptor not given
[1] = substrate: Nc1ncnc2c1ncn2[C@@H]1O[C@H](COP(=O)(O)OS(=O)(=O)O)[C@@H](OP(=O)(O)O)[C@H]1O; test: sulfotransferase kinetics, HPLC-MS; type: biochemical, Rattus norvegicus; conditions: Mg2+, pH 7.5, 35 °C (general assay), acceptor not given
Source text: sulfotransferase kinetics, HPLC-MS on aryl sulfotransferase IV (AST IV)

[2] = substrate: Nc1ncnc2c1ncn2[C@@H]1O[C@H](COP(=O)(O)OS(=O)(=O)O)[C@@H](OP(=O)(O)O)[C@H]1O; test: sulfotransferase kinetics, HPLC-MS; type: biochemical, Mycolicibacterium smegmatis; conditions: sulfonate acceptor trehalose, Mg2+, pH 7.5, 35 °C (general assay)
Source text: sulfotransferase kinetics, HPLC-MS on trehalose sulfotransferase (Stf0)

[3] = substrate: Nc1ncnc2c1ncn2[C@@H]1O[C@H](COP(=O)(O)OS(=O)(=O)O)[C@@H](OP(=O)(O)O)[C@H]1O; test: sulfotransferase kinetics, HPLC-MS; type: biochemical, Mus musculus; conditions: Mg2+, pH 7.5, 35 °C (general assay), acceptor not given

B1: aryl sulfotransferase IV (AST IV) (Rattus norvegicus) (protein)
chain: MEFSRPPLVHVKGIPLIKYFAETIGPLQNFTAWPDDLLISTYPKSGTTWMSEILDMIYQGGKLEKCGRAPIYARVPFLEFKCPGVPSGLETLEETPAPRLLKTHLPLSLLPQSLLDQKVKVIYIARNAKDVVVSYYNFYNMAKLHPDPGTWDSFLENFMDGEVSYGSWYQHVKEWWELRHTHPVLYLFYEDIKENPKREIKKILEFLGRSLPEETVDSIVHHTSFKKMKENCMTNYTTIPTEIMDHNVSPFMRKGTTGDWKNTFTVAQNERFDAHYAKTMTDCDFKFRCEL
notes: recombinant in E. coli; N-terminal GST fusion printed for the whole-cell work
- Km (purified protein): 2450 ± 500 µM
- kcat (purified protein): 0.00688 s⁻¹
- kcat/Km (purified protein): 2.81 M⁻¹ s⁻¹
- Km [1]: 1430 ± 172 µM
- kcat [1]: 0.0131 ± 0.000614 s⁻¹
- kcat/Km [1]: 9.19 M⁻¹ s⁻¹

B2: trehalose sulfotransferase (Stf0) (Mycolicibacterium smegmatis MC2 155) (protein)
chain: MSDHPTAYLVLASQRSGSTLLVESLRATGVAGEPQEFFQYLPNTSMSPQPREWFADVEDQSILRLLDPLIEGKPDLAPATIWRDYIQTVGRTPNGVWGGKLMWNQTPLLVQRAKDLPDRSGSGLLSAIRDVVGSDPVLIHIHRPDVVSQAVSFWRAVQTRVWRGRPDPVRDARAEYHAGAIAHVITMLRAQEEGWRAWFTEENVEPIDVDYPYLWRNLTEVVGTVLEALGQDPRLAPKPVLERQADQRSDEWVERYRRDAQRDGLPL
- Km [2]: 820 ± 60 µM
- kcat [2]: 0.00988 ± 0.00025 s⁻¹
- kcat/Km [2]: 12.1 M⁻¹ s⁻¹

B3: estrogen sulfotransferase (EST) (Mus musculus) (protein)
chain: METSMPEYYEVFGEFRGVLMDKRFTKYWEDVEMFLARPDDLVIATYPKSGTTWISEVVYMIYKEGDVEKCKEDAIFNRIPYLECRNEDLINGIKQLKEKESPRIVKTHLPPKLLPASFWEKNCKMIYLCRNAKDVAVSYYYFLLMITSYPNPKSFSEFVEKFMQGQVPYGSWYDHVKAWWEKSKNSRVLFMFYEDMKEDIRREVVKLIEFLERKPSAELVDRIIQHTSFQEMKNNPSTNYTMMPEEMMNQKVSPFMRKGIIGDWKNHFPEALRERFDEHYKQQMKDCTVKFRMEL
- Km [3]: 1560 ± 260 µM
- kcat [3]: 0.00849 ± 0.000572 s⁻¹
- kcat/Km [3]: 5.44 M⁻¹ s⁻¹
